These results are taken from IntAct's records for PubMed 31404830.

B1: PRL-1 phosphatase (Drosophila melanogaster (Fruit fly)), O61722 (parent)
chain: MSITMRQKDLRPAPALIEYKGMKFLITDRPSDITINHYIMELKKNNVNTVVRVCEPSYNTDELETQGITVKDLAFEDGTFPPQQVVDEWFEVLKDKYQQNPEACVAVHCVAGLGRAPVLVALALIELGLKYEAAVEMIRDKRRGAINAKQLSFLEKYKPKARLKHKNGHKNSCSVQ

Variants of B1 are the subject of this assay. The following applies: with uex_drome uex.
As to D77A;C109S, the “effect of a mutation on the interaction” value is “decreasing interaction strength”.
